Patent publication US20090208949A1 (WISCONSIN ALUMNI RESEARCH FOUNDATION, published 2009)
Where no end group is shown, it is not given here.

T1: sorting nexin 5 (Homo sapiens (Human), UniProt Q9Y5X3 1-404, limits assumed)
T1 construct: also called SNX5; Myc-SNX5
T1 sequence: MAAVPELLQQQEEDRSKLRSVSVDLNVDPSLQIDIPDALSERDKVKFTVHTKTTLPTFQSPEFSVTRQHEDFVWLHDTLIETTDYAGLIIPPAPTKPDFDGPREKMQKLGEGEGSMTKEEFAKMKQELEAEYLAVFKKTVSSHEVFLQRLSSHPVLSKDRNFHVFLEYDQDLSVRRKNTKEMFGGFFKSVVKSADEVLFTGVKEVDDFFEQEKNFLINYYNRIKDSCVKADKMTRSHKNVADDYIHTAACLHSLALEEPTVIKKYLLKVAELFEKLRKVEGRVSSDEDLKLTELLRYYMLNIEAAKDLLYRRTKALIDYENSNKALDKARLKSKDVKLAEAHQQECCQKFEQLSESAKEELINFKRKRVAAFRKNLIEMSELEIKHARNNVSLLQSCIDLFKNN

T2: LMO4 (Homo sapiens (Human), UniProt P61968 1-165)
T2 sequence: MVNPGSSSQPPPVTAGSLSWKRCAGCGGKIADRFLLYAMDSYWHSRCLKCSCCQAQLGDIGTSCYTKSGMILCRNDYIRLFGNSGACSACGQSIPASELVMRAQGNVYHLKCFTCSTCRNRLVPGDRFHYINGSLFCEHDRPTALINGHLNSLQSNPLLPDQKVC


Columns and labels:
[1] = target: T1, sorting nexin 5; assay: yeast two-hybrid screen
[2] = target: T2, LMO4; assay: yeast two-hybrid screen

binding result [1] | binding result [2] | Binder
binds | – | C-terminus of the PIPKIγ 707 splice variant (other, Yeast two-hybrid bait) FTDGRYWIYSPRHRRLRAVTLSASGTVSDRSRPPWGEGAVPLGQQGAAGPRPEAQCLTSVVFQKGFG
– | binds | C-terminus of the PIPKIγ 700 variant (other, not fully specified; cysteine pairing not given here, Yeast two-hybrid bait) WRLWGPHAPTWPWRREGRAACLCPYPPHVVTPFPGTGLCASWSPDGTGGLGAMSCCVSVS
